Source: PMC10579966, “The NADH recycling enzymes TsaC and TsaD regenerate reducing equivalents for Rieske oxygenase chemistry” (The Journal of Biological Chemistry, 2023)

Assays:
[1] = molecular target: T1, TsaC (Comamonas testosteroni, UniProt P94681); experiment: differential scanning fluorimetry; assay type: binding; details: 10 μM enzyme; NADH alone
T1 construct: gene tsaC1; N-terminal His6 tag with TEV site (residues -20 to -1, kept), codon-optimized, pET-28a(+)-TEV, E. coli C41(DE3); native residues 1-252; homotetramer

[2] = molecular target: T2, TsaM (Comamonas testosteroni, UniProt P94679); experiment: LC-MS product formation and NADH consumption (A340); assay type: biochemical; details: with reductase VanB, Fe(II), 30 °C
T2 construct: gene tsaM1; pET-28a(+)-TEV-tsaM, E. coli C41(DE3), purified as TsaC; trimer
T2 sequence (P94679 1-347): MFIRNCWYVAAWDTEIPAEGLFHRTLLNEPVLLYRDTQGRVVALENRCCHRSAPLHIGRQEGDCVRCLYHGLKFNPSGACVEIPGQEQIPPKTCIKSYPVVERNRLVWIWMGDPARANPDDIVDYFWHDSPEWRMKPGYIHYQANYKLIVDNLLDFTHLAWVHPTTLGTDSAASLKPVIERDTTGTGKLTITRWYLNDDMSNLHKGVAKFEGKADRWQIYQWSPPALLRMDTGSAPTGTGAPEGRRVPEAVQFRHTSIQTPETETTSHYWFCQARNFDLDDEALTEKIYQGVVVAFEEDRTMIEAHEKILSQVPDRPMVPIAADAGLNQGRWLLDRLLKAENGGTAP

[3] = molecular target: T3, TsaC (Comamonas testosteroni, UniProt P94681, G149N); experiment: GC-MS turnover; assay type: biochemical; details: 5 mM NAD+, 10 μM enzyme, 30 °C, 2 h
T3 construct: gene tsaC1; N-terminal His6 tag with TEV site (residues -20 to -1, kept), codon-optimized, pET-28a(+)-TEV, E. coli C41(DE3); native residues 1-252; homotetramer

[4] = molecular target: T4, TsaC (Comamonas testosteroni, UniProt P94681, T143Q/G149N); experiment: GC-MS turnover; assay type: biochemical; details: 5 mM NAD+, 10 μM enzyme, 30 °C, 2 h
T4 construct: gene tsaC1; N-terminal His6 tag with TEV site (residues -20 to -1, kept), codon-optimized, pET-28a(+)-TEV, E. coli C41(DE3); native residues 1-252; homotetramer

[5] = molecular target: the molecule itself; experiment: SEC; gel filtration in the purification of TsaM, purified as described for TsaC; lysis buffer 50 mM Tris-HCl pH 7.2, 250 mM NaCl
[6] = substrate: O=Cc1ccc(C(=O)O)cc1; experiment: LC-MS steady-state kinetics; assay type: biochemical, Comamonas testosteroni; details: 2 mM NAD+, 30 °C
From the text: (§1) LC-MS steady-state kinetics on TsaD

[7] = substrate: O=Cc1ccc(S(=O)(=O)O)cc1; experiment: LC-MS steady-state kinetics; assay type: biochemical, Comamonas testosteroni; details: 2 mM NAD+, 30 °C
From the text: as §1

[8] = molecular target: the molecule itself; experiment: SEC; HiPrep 16/60 Sephacryl S200-HR, 50 mM Hepes pH 8.0, 200 mM NaCl, 5% glycerol
[9] = substrate: O=C(O)c1ccc(CO)cc1; experiment: LC-MS steady-state kinetics; assay type: biochemical, Comamonas testosteroni; details: 2 mM NAD+, 30 °C
From the text: (§2) LC-MS steady-state kinetics on TsaC

[10] = substrate: O=Cc1ccc(C(=O)O)cc1; experiment: LC-MS steady-state kinetics; assay type: biochemical, Comamonas testosteroni; details: 2 mM NAD+, 30 °C, aldehyde hydrate proposed as the oxidized species
From the text: as §2

[11] = substrate: O=Cc1ccc(S(=O)(=O)O)cc1; experiment: LC-MS steady-state kinetics; assay type: biochemical, Comamonas testosteroni; details: 2 mM NAD+, 30 °C, aldehyde hydrate proposed as the oxidized species
From the text: as §2

[12] = substrate: O=S(=O)(O)c1ccc(CO)cc1; experiment: LC-MS steady-state kinetics; assay type: biochemical, Comamonas testosteroni; details: 2 mM NAD+, 30 °C
From the text: as §2

[13] = molecular target: the molecule itself; experiment: crystal structure; hanging-drop vapor diffusion, 10 to 20 mg/ml protein with 2 mM NAD+, 0.2 M KCl, 20% PEG 3350, 10% glycerol, 293 K; two chains in the asymmetric unit, tetramer with two symmetry-related molecules; 2.18 A
[14] = molecular target: the molecule itself; experiment: SEC-MALS; 15 ul of 90 uM protein, AdvanceBio 300A column, 50 mM Hepes pH 8.2, 200 mM NaCl, 5% glycerol, with either NAD+ or NADH, room temperature; about 0.3 uM at the apex of the largest peak

T4 sequence (P94681 whole entry T143Q/G149N, the tested form may be a part): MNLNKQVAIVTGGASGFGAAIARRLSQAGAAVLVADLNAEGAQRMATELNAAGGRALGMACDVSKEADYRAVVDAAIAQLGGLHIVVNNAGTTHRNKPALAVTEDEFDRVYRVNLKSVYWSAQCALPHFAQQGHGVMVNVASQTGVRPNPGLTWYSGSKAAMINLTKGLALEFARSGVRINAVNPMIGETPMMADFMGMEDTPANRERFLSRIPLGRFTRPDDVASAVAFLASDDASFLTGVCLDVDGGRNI
T3 sequence (P94681 whole entry G149N, the tested form may be a part): as the sequence (P94681 whole entry T143Q/G149N, the tested form may be a part) above, with Q143T counted along it

## NC(=O)C1=CN([C@@H]2O[C@H](COP(=O)(O)OP(=O)(O)OC[C@H]3O[C@@H](n4cnc5c(N)ncnc54)[C@H](O)[C@@H]3O)[C@@H](O)[C@H]2O)C=CC1 [NADH]
[1]
  ΔTm: 12.4 °C

## Cc1ccc(C(=O)O)cc1 [4-methylbenzoate]
[2]
  LC-MS product formation and NADH consumption (A340): TsaM and VanB consume more 4-methylbenzenesulfonate than 4-methylbenzoate

## C[C@H](O)[C@@H](C)O [meso-2,3-butanediol]
[3]
  GC-MS turnover: both the G149N and T143Q/G149N variants of TsaC show a significantly improved ability
[4]
  GC-MS turnover: T143Q/G149N variants of TsaC show a significantly improved ability to transform meso-2,3-butanediol into 3-hydroxy-2-butanone

## Cc1ccc(S(=O)(=O)O)cc1 [4-methylbenzenesulfonate]
[2]
  LC-MS product formation and NADH consumption (A340): more NADH is consumed in assays that contain 4-methylbenzenesulfonate rather than 4-methylbenzoate

B1: TsaM (wild type), Rieske oxygenase of the TsaMBCD pathway (enzyme, Comamonas testosteroni, UniProt P94679 1-347, looked up)
chain: MFIRNCWYVAAWDTEIPAEGLFHRTLLNEPVLLYRDTQGRVVALENRCCHRSAPLHIGRQEGDCVRCLYHGLKFNPSGACVEIPGQEQIPPKTCIKSYPVVERNRLVWIWMGDPARANPDDIVDYFWHDSPEWRMKPGYIHYQANYKLIVDNLLDFTHLAWVHPTTLGTDSAASLKPVIERDTTGTGKLTITRWYLNDDMSNLHKGVAKFEGKADRWQIYQWSPPALLRMDTGSAPTGTGAPEGRRVPEAVQFRHTSIQTPETETTSHYWFCQARNFDLDDEALTEKIYQGVVVAFEEDRTMIEAHEKILSQVPDRPMVPIAADAGLNQGRWLLDRLLKAENGGTAP
notes: TsaM, Comamonas testosteroni, in pET-28a(+)-TEV-tsaM; also called wild-type TsaM; source: E. coli C41(DE3), purified as described for TsaC (gel filtration)
[5]
  stoichiometry N: 3

B2: TsaD (wild type), aldehyde dehydrogenase of the TsaMBCD pathway (enzyme, Comamonas testosteroni, UniProt P94682 1-476, looked up)
chain: MSTVLYRCPELLIGGEWRPGRHEQRLVVRNPATGEPLDELRLASADDLQLALQTTQQAFEHWRQVPAHERCARLERGVARLRENTERIAHLLTLEQGKTLAEARMECAMAADLIKWYAEEARRVYGRVIPARLPNSRMEVFKFPVGPVAAFSPWNFPLVLSARKLGGAIAAGCSIVLKAAEETPASVAAMVDCLNQELPPGVVQLLYGVPAEVSQALIASPVVRKVTFTGSVPVGRHLAELSARHLKRITLELGGHAPVIVCGDADIARTVNLMVQHKFRNAGQACLAPTRFFVDRRIYGDFVDAFGATQALRVGAGMAAETQMGPVASARRQAAVQDLIARSVAAGARPVASAVPEAGYFVAPTLLADVPLDAPVMSEEPFGPVACAVPFDSLDQAIAQANHNPYGLAGYLFTDSAKAILAVSERLEVGSLAVNGMGVSVPEAPFGGVKDSGYGSESGTEGMEAFLDTKFMHYVA
notes: TsaD, Comamonas testosteroni, codon-optimized synthetic gene in pMCSG9; Expression followed the TsaC protocol with ampicillin; also called untagged TsaD; source: E. coli, purified (MBPTrap, TEV cleavage, HisTrap HP flow-through, Sephacryl S200-HR gel filtration); not shown: MBP, N-terminal, cleaved; His6, N-terminal, cleaved
[6]
  Km: 21 ± 6.9 µM
  Vmax: 13 µM/min
  kcat: 0.105 ± 0.00983 s⁻¹
  kcat/Km: 5000 ± 1700 M⁻¹ s⁻¹
[7]
  Km: 16 ± 2.5 µM
  Vmax: 13 µM/min
  kcat: 0.112 ± 0.00517 s⁻¹
  kcat/Km: 6900 ± 1100 M⁻¹ s⁻¹
[8]
  stoichiometry N: 2

B3: TsaC (wild type), short-chain dehydrogenase/reductase of the TsaMBCD pathway (enzyme, Comamonas testosteroni, UniProt P94681 1-252, looked up)
chain: MNLNKQVAIVTGGASGFGAAIARRLSQAGAAVLVADLNAEGAQRMATELNAAGGRALGMACDVSKEADYRAVVDAAIAQLGGLHIVVNNAGTTHRNKPALAVTEDEFDRVYRVNLKSVYWSAQCALPHFAQQGHGVMVNVASTTGVRPGPGLTWYSGSKAAMINLTKGLALEFARSGVRINAVNPMIGETPMMADFMGMEDTPANRERFLSRIPLGRFTRPDDVASAVAFLASDDASFLTGVCLDVDGGRNI
notes: TsaC, Comamonas testosteroni, codon-optimized synthetic gene in pET-28a(+)-TEV; native residues 1 (initial methionine) to 252 (the four C-terminal residues are 249 to 252); the His6 tag and TEV protease cleavage site are numbered -20 to -1; The tag and TEV site (residues -20 to -1) are present in the crystallised protein but disordered; no cleavage of the tag is described; also called wild-type …
[9]
  Km: 18 ± 2.8 µM
  Vmax: 12 µM/min
  kcat: 0.0983 ± 0.00367 s⁻¹
  kcat/Km: 5400 ± 870 M⁻¹ s⁻¹
[10]
  Km: 23 ± 4.7 µM
  Vmax: 13 µM/min
  kcat: 0.112 ± 0.00667 s⁻¹
  kcat/Km: 4800 ± 1000 M⁻¹ s⁻¹
[11]
  Km: 20 ± 3.5 µM
  Vmax: 15 µM/min
  kcat: 0.125 ± 0.00583 s⁻¹
  kcat/Km: 6200 ± 1100 M⁻¹ s⁻¹
[12]
  Km: 13 ± 2.0 µM
  Vmax: 12 µM/min
  kcat: 0.1 ± 0.004 s⁻¹
  kcat/Km: 7900 ± 1300 M⁻¹ s⁻¹
[13]
  stoichiometry N: 4

B4: Y155F TsaC variant (enzyme, Comamonas testosteroni, UniProt P94681 1-252, looked up)
chain: MNLNKQVAIVTGGASGFGAAIARRLSQAGAAVLVADLNAEGAQRMATELNAAGGRALGMACDVSKEADYRAVVDAAIAQLGGLHIVVNNAGTTHRNKPALAVTEDEFDRVYRVNLKSVYWSAQCALPHFAQQGHGVMVNVASTTGVRPGPGLTWFSGSKAAMINLTKGLALEFARSGVRINAVNPMIGETPMMADFMGMEDTPANRERFLSRIPLGRFTRPDDVASAVAFLASDDASFLTGVCLDVDGGRNI
notes: TsaC, Comamonas testosteroni, made by site-directed mutagenesis of pET-28a(+)-TEV-tsaC; same limits as the wild type (native residues 1 to 252); Expressed and purified as the wild type; source: E. coli C41(DE3), purified (HisTrap HP, Sephacryl S200-HR gel filtration)
[14]
  stoichiometry N: 4
